Columns and labels:
[1] = biological target: T1, TRC 1-2L.1592 meganuclease (synthetic construct); test: cell_activity; CD3 knockout in primary human T cells; EC90 0.545 ug
T1 chain: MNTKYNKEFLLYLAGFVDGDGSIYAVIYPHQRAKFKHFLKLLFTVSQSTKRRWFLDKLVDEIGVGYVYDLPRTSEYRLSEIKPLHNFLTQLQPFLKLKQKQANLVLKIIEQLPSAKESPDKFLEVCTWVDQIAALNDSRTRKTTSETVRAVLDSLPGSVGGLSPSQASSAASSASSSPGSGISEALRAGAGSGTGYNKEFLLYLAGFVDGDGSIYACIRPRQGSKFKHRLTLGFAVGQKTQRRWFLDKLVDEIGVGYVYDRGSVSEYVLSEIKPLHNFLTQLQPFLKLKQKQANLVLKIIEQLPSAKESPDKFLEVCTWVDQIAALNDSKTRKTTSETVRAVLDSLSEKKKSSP
Experimental: (§1) In this study, an apheresis sample was drawn from a healthy, informed, and compensated donor, and the T cells were enriched using the CD3 positive selection kit II in accord with the manufacturer's instructions (Stem Cell Technologies). T cells were prepared for editing by stimulating with ImmunoCult anti-CD3/CD28/CD2 (Stem Cell Technologies) for three days in Xuri medium (GE Healthcare) supplemented with fetal bovine serum to 5% (Gemini Bio) and recombinant human IL-2 to 10 ng/ml (Gibco). Stimulated T cells were harvested and counted (Countess II, ThermoFisher) before electroporation was carried out on the Lonza 4-D NucleoFector using a titrated range of mRNA encoding TRC 1-2L.1592 or TRC 1-2L.2307. The concentrations used for this study were 2, 1, 0.5, 0.25, 0.125, and 0.0625 μg of RNA per 1×10⁶ stimulated T cells. Cells were subsequently cultured as above with IL-2 supplemented to 30 ng/ml.
(§2) Using cell counts and frequency of TRAC-edited CAR+ events, the number of CAR T cells produced using each TRC1-2 variant were calculated and plotted in FIG. 7. GraphPad Prism was used to calculate EC50 and EC90 values for TRC 1-2L.1592 (FIG. 7A), and TRC 1-2L.2307 (FIG. 7B).

[2] = biological target: T2, TRC 1-2L.2307 meganuclease (synthetic construct); test: cell_activity; CD3 knockout in primary human T cells; EC90 0.354 ug; settings: tags: N-terminal SV40 NLS (mRNA delivered)
T2 chain: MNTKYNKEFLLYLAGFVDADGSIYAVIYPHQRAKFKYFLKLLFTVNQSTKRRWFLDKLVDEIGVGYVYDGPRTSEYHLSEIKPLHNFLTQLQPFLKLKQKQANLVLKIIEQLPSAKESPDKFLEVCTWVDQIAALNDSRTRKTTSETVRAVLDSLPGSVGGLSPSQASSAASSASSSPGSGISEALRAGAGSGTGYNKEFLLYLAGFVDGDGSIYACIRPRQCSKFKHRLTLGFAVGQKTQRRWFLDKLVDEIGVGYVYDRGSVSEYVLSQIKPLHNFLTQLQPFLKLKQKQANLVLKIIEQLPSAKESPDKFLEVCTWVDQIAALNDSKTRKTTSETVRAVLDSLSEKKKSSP
Experimental: as §1, §2

B1: TRC 1-2 recognition sequence (dsDNA)
DNA 1: TGGCCTGGAGCAACAAATCTGA
DNA 2: TCAGATTTGTTGCTCCAGGCCA
EC50 [1]: 0.372 ug mRNA per 1e6 cells | EC50 [2]: 0.179 ug mRNA per 1e6 cells

Reference: patent publication US20260117212, “OPTIMIZED ENGINEERED MEGANUCLEASES HAVING SPECIFICITY FOR THE HUMAN T CELL RECEPTOR ALPHA CONSTANT REGION GENE” (Precision BioSciences, Inc., published 2026)
